{"source": "patent EP4442276A1", "about": "(INSTITUT PASTEUR, dated 2024)", "molecular_target": "Spike of SARS-CoV-2 reference D614G strain (hCoV-19/France/GE1973/2020) (SARS-CoV-2, UniProt P0DTC2 14-1273)", "experiment": "cell-based or functional assay"}
{"binder": "Cv2.3132 IgG antibody (antibody, V domains shown, also called anti-HR2 antibody Cv2.3132) VH: EVQLVESGGGLVKPGGSLRLSCAASGFTFSDYYMSWIRQAPGKGLEWVSYISSSGSVQYYADSVKGRFTISRDNAKNSLYLQMNSLRAEDTAVYYCARYYYDSSGYWKRLDYWGQGTLVTVSS VL: not shown", "values": [{"measurement": "IC50, S-Fuse neutralization assay", "value": 35.4, "unit": "µg/mL"}]}
